Here are results for 13 molecules from patent publication US6420532B1, “Method of obtaining compositions comprising Y2 specific compounds” (Synaptic Pharmaceutical Corporation, priority 1994, dated 2002).

Experiment [1] deals with human hippocampal Y2 receptor (clone CG-13) (human) (UniProt P49146). The experiment can be described thus: 125I-PYY displacement, COS-7 membranes, Ki from IC50.
For experiment [2] the target is unchanged. Described as above. This is another data set of the same source.
Experiment [3] concerns the target T1, human Y1 receptor (human, UniProt P25929 1-384).
T1 construct: whole, on cells; transiently expressed in COS-7 cells; membranes used; also called Y1 gene
T1 sequence (looked up): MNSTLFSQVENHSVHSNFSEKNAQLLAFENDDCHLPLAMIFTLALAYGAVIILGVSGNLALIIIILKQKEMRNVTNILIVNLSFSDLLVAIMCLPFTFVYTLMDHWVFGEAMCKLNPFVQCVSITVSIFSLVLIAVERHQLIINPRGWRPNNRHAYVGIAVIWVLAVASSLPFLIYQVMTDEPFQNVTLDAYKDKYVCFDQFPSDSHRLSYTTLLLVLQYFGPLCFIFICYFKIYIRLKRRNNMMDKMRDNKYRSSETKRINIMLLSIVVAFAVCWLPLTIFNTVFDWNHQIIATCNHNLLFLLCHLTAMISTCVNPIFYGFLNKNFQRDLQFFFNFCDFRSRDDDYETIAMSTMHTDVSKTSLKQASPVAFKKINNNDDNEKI
The experiment is described as above.

Another experiment has as its target T2, human Y4 receptor (human, UniProt P50391 1-375).
T2 construct: whole, on cells; transiently expressed in COS-7 cells; membranes used
The experiment is described as above.

Experiment [4] addresses rat Y2a receptor (encoded by rs5a) (rat). The experiment is described as above.
Experiment [5] has as its target human hippocampal Y2 receptor (clone CG-13) (human) (UniProt P49146). The experiment can be described thus: cell-based or functional assay.
The target of experiment [6] is T3, human hippocampal Y2 receptor (clone CG-13) (human, UniProt P49146 1-381).
T3 construct: 381 amino acids; also called CG-13 receptor; human Y2
T3 sequence: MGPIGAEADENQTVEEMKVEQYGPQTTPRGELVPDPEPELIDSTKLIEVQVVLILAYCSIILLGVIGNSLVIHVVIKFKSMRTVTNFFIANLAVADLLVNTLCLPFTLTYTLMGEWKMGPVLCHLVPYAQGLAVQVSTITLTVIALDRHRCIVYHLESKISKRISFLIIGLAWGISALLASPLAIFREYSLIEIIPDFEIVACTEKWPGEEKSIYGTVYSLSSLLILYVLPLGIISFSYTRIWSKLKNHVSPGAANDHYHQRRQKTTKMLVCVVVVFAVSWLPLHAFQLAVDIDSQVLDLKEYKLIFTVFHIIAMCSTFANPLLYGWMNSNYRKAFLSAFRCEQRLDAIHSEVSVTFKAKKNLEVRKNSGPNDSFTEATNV
The experiment can be described thus: 125I-PYY displacement, COS-7 membranes, Ki from IC50.

Experiment [7] has as its target T1, human Y1 receptor. Described as above. The source holds these as a separate data set.
The target in experiment [8] is T3, human hippocampal Y2 receptor (clone …). Described as above. This is another data set of the same source.
Experiment [9] concerns the target T4, Y2-like receptor population expressed by human SK-N-Be(2) neuroblastoma cells (human).
T4 chain: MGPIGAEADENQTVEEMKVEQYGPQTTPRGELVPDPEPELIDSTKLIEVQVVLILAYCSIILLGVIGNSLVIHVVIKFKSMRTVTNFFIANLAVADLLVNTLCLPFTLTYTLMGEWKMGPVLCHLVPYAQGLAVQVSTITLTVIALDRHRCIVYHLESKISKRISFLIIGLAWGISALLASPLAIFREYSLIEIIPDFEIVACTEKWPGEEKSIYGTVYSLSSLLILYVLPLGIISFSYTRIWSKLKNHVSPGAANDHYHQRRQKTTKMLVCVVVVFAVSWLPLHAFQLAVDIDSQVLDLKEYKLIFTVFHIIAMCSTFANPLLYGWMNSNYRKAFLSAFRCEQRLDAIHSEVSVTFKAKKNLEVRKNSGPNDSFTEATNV
The experiment can be described thus: 125I-PYY displacement, SK-N-Be(2) membranes, Ki from IC50.

The target in experiment [10] is T3, human hippocampal Y2 receptor (clone …). In words: cell-based or functional assay.
The target is the same in experiment [11]. In words: 125I-PYY displacement binding assay (Table 9, binding column).
The target of experiment [12] is T1, human Y1 receptor. The experiment can be described thus: 125I-PYY displacement, COS-7 membranes, Ki from IC50. This is another data set of the same source.
Experiment [13] addresses T3, human hippocampal Y2 receptor (clone …). The description is as above. This is another data set of the same source.

Read-outs that look alike come from different tables or passages of the source. Bridges are numbered along the chain shown (N, C = ends). Where no end group is shown, it is not given here. [ ]: non-standard residue; d: D form. Aoc = NCCCCCCCC(=O)O

T2 sequence (P50391 whole entry): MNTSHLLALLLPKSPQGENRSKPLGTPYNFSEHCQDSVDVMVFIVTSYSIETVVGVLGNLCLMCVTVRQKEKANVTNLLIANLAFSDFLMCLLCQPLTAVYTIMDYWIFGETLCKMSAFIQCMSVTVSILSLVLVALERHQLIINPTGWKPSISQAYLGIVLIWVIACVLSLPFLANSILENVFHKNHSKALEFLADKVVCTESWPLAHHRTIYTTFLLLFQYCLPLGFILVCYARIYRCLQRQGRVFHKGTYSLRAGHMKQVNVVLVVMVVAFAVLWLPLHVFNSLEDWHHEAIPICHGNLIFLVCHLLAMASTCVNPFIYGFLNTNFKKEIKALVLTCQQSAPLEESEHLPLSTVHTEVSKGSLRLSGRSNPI

As a reminder, the Ki is a dissociation constant, usually derived from enzyme kinetics or from competition with a known ligand. In the case of “human NPY free acid (from UniProt P01303 29-64) (peptide)”, the inhibitory constant (Ki) in experiment [1] is greater than 1000 nM; in [2] it was greater than 300 nM.

In the case of PP, avian (peptide), the Ki in the experiment with human Y1 receptor [3] was 400 nM; in experiment [1] it was greater than 1000 nM; with human Y4 receptor, 7 nM.

For PP, salmon (peptide), the Ki was 0.2 nM with human Y1 receptor [3], 0.17 nM in experiment [4] and 3.2 nM in the experiment with human Y4 receptor. The same molecule gave an EC50, inhibition of forskolin-stimulated cAMP accumulation, stably transfected 293 cells in experiment [5] of 0.07 nM.

Regarding APLEPMYPGDYATHEQRAQYETQLRRYINTLTRPRY-NH2 (peptide, UniProt P06303 30-65, looked up, mature; also called rat PP) [PP, rat], the Ki in experiment [6] is greater than 1000 nM; in the experiment with human Y1 receptor [7] it was 460 nM; in [8], greater than 1000 nM; with human Y4 receptor, 0.18 nM.

B1: porcine NPY13-36 (peptide, UniProt P01304 22-45, looked up)
peptide: PAEDLARYYSALRHYINLITRQRY-NH2
notes: range 13-36; also called NPY13-36, porcine
On to B1, for which the Ki in experiment [9] amounted to 1.8 nM; in the experiment with human Y4 receptor it was 38 nM.

APLEPEYPGDNATPEQMAQYAAELRRYINMLTRPRY-NH2 (peptide, UniProt P01302 30-65, looked up, mature; also called bovine PP) [PP, bovine]: the Ki in experiment [6] is greater than 825 nM; with human Y1 receptor [7] it was 240 nM; in experiment [8], 830 nM; with human Y4 receptor, 0.05 nM.

B2: C2-NPY, porcine (peptide)
chain: YCSK[Aoc]RHCINLITRQRY-NH2
modifications: disulfide 2-8; N-terminus assumed
SMILES: CC[C@H](C)[C@H](NC(=O)[C@@H]1CSSC[C@H](NC(=O)[C@@H](N)Cc2ccc(O)cc2)C(=O)N[C@@H](CO)C(=O)N[C@@H](CCCCN)C(=O)NCCCCCCCC(=O)N[C@@H](CCCNC(=N)N)C(=O)N[C@@H](Cc2c[nH]cn2)C(=O)N1)C(=O)N[C@@H](CC(N)=O)C(=O)N[C@@H](CC(C)C)C(=O)N[C@H](C(=O)N[C@H](C(=O)N[C@@H](CCCNC(=N)N)C(=O)N[C@@H](CCC(N)=O)C(=O)N[C@@H](CCCNC(=N)N)C(=O)N[C@@H](Cc1ccc(O)cc1)C(N)=O)[C@@H](C)O)[C@@H](C)CC
Turning to B2, the “EC50, inhibition of forskolin-stimulated cAMP accumulation, stably transfected 293 cells” value (from here on “EC50, inhibition”) in experiment [10] was 0.14 nM. Besides, the inhibition constant Ki in experiment [11] amounted to 3.5 nM; with human Y1 receptor [7], 73 nM; in experiment [8], 3.5 nM; in the experiment with human Y4 receptor, 120 nM.

B3: porcine NPY20-36 (peptide, UniProt P01304 29-45, looked up)
peptide: YYSALRHYINLITRQRY-NH2
notes: range 20-36; also called NPY20-36, porcine
Turning to B3, the Ki stood at 62 nM with human Y1 receptor [12], 63 nM with human Y1 receptor [7] and 120 nM with human Y4 receptor.

With YPSKPDNPGEDAPAEDMARYYSAL-NH2 (peptide, UniProt P01303 29-52, looked up, range 1-24) [NPY1-24 amide, human], the inhibition constant Ki in experiment [8] was greater than 1000 nM.

B4: porcine NPY22-36 (peptide, UniProt P01304 31-45, looked up)
peptide: SALRHYINLITRQRY-NH2
notes: range 22-36; also called NPY22-36, porcine
In the case of B4, the “EC50, inhibition” value in [10] was 2.3 nM. For the same molecule, the Ki in experiment [9] was 3.2 nM; with human Y1 receptor [12] it was 170 nM; in experiment [13] it was 4.6 nM; in experiment [11], 18 nM; in experiment [8] it was 18 nM.

B5: porcine NPY26-36 (peptide, UniProt P01304 35-45, looked up)
peptide: HYINLITRQRY-NH2
notes: range 26-36; also called NPY26-36, porcine
As for B5, the inhibitory constant (Ki) is 70 nM in experiment [9]; 210 nM in experiment [13]; 380 nM in [6]; greater than 1000 nM with human Y1 receptor [7]; 380 nM in experiment [8].

With APSEPHHPGDQATQDQLAQYYSDLYQYITFVTRPRF-NH2 (also called frog PP) [PP, frog], the Ki was 96 nM with human Y1 receptor [7], greater than 1000 nM in [8] and 61 nM with human Y4 receptor.

B6: porcine NPY16-36 (peptide, UniProt P01304 25-45, looked up)
peptide: DLARYYSALRHYINLITRQRY-NH2
notes: range 16-36; also called NPY16-36, porcine
For the molecule B6, the “EC50, inhibition” value in experiment [10] turned out to be 1.8 nM. The inhibition constant Ki was determined as 5 nM in experiment [9]; 3.8 nM in experiment [13]; 3.6 nM in experiment [11]; 3.6 nM in experiment [8]; 54 nM with human Y4 receptor.
